Results reported in patent US20090311283A1.

Assays:
HLA-A*2401 (human) = assay: competition with a 125I-labelled probe peptide for purified HLA, gel filtration; binding relative to the standard peptide
HLA-A*0301 (human) = assay: competition with 125I-labelled probe peptide for purified HLA, gel filtration; value relative to standard peptide

## HBV ENV 177 9-mer peptide […] (peptide; other documents disagree on this pair)
HLA-A*0201 (human)
  binding affinity ratio (IC50 of standard peptide / IC50 of test peptide): 0.066

## HBV ENV 177 8-mer peptide […] (peptide; other documents disagree on this pair)
HLA-A*0201 (human)
  binding affinity ratio (IC50 of standard peptide / IC50 of test peptide): 0.0019

## HBV ENV 177 10-mer peptide […] (peptide; other documents disagree on this pair)
HLA-A*0201 (human)
  binding affinity ratio (IC50 of standard peptide / IC50 of test peptide): 0.0011

## […] (HBV ENV 249, 15-mer) (peptide; other documents disagree on this pair)
HLA-DRB1*0101 (human)
  binding affinity ratio (IC50 of standard peptide / IC50 of test peptide): 0.0026
HLA-DRB1*0401 (human)
  binding affinity ratio (IC50 of standard peptide / IC50 of test peptide): 0.032
HLA-DRB5*0101 (human)
  binding affinity ratio (IC50 of standard peptide / IC50 of test peptide): 0.0069
HLA-DRB1*1101 (human)
  binding affinity ratio (IC50 of standard peptide / IC50 of test peptide): 0.0018
HLA-DRB1*0701 (human)
  binding affinity ratio (IC50 of standard peptide / IC50 of test peptide): 0.0047

## HBV ENV 362 peptide WYWGPSLY
HLA-A*2401 (human)
  binding affinity ratio (IC50 of standard peptide / IC50 of test peptide): 0.0001

## HBV POL 377 LWDFSQF (peptide)
HLA-A*0301 (human)
  binding affinity ratio (IC50 of standard peptide / IC50 of test peptide): 0.0016
